According to the supplement of paper PMC12042874:
± gives the uncertainty stated by the source.

Experiment: amyloid nucleation score (Sup35N fusion, yeast selection) (log enrichment); library NNK2; higher = more nucleation; inactive = no reads after selection
Method in brief: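 Using DiMSum, nucleation scores were taken as the log enrichment of output over input reads, centred on the mode score of non-aggregating sequences. The input and output reads came from Illumina sequencing of plasmid inserts, with sequences under 100 input reads excluded. The yeast were psi-negative, expressed Sup35N fused to peptides of 20 random codons, were induced with 100 μM copper sulfate for 24 hours, and were grown 7 days at 30°C on medium lacking adenine and uracil.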

Which amyloid nucleation score does the source give for LGNWCGYWYFHHISSYGLMR here?
Its amyloid nucleation score is -0.419 ± 0.5.

Which amyloid nucleation score does the source give for LGPTVYDFLHMCFYFRA here?
The amyloid nucleation score was 4.74 ± 0.065.

With LGSRGSRSIAESFAGKIRI as the substance, how does the amyloid nucleation score read?
Its amyloid nucleation score is -0.226 ± 1.1.

Which amyloid nucleation score does the source give for LGVNYAMNVTSGSQTFMRDG here?
The amyloid nucleation score was -0.243 ± 1.

With LGYSLAACNQETGNDRYMAR as the substance, how does the amyloid nucleation score read?
Its amyloid nucleation score is 0.121 ± 0.34.

With LHIMVFQYLKWHTAI as the substance, how does the amyloid nucleation score read?
Its amyloid nucleation score is -0.07 ± 0.49.

With LHMCHWDSYSE as the substance, how does the amyloid nucleation score read?
The amyloid nucleation score was 1.36 ± 0.35.

With LHNDLLKVNSERENNNDLGS as the substance, how does the amyloid nucleation score read?
The amyloid nucleation score was 0.089 ± 0.5.

With LHQGKPYITLALYRFLHGSR as the substance, how does the amyloid nucleation score read?
The amyloid nucleation score was -1.15 ± 1.1.

For LHRYRNAQVSWE, which amyloid nucleation score is on record?
Its amyloid nucleation score is -0.512 ± 0.74.

For LHSYVFTKGSRTQCRWRKNP, which amyloid nucleation score is on record?
The amyloid nucleation score was 0.07 ± 0.28.

For LICGARYINFSGKGNY, which amyloid nucleation score is on record?
The amyloid nucleation score was 0.023 ± 0.29.

With LILDILSRGSAYYDCTRMKG as the substance, how does the amyloid nucleation score read?
The amyloid nucleation score was “inactive”.

Which amyloid nucleation score does the source give for LILSSSSLVGVALRRVYCVT here?
Its amyloid nucleation score is -0.809 ± 0.34.

For LILTCPCMCRFYVWGSTQYR, which amyloid nucleation score is on record?
The amyloid nucleation score was -0.313 ± 0.39.

For LILTFLEWNLFFYSFNIFTY, which amyloid nucleation score is on record?
The amyloid nucleation score was 5.39 ± 0.078.

Which amyloid nucleation score does the source give for LIPLIVLGGTDSFKELYGYE here?
Its amyloid nucleation score is -0.624 ± 0.61.

For LISEVALGFAPMKIVRGFLD, which amyloid nucleation score is on record?
The amyloid nucleation score was -0.284 ± 0.56.

With LISGRMHNVCEPGAKSRTLR as the substance, how does the amyloid nucleation score read?
Its amyloid nucleation score is 0.76 ± 0.18.

For LISVDFRYYGYVVLGWISTL, which amyloid nucleation score is on record?
Its amyloid nucleation score is 0.807 ± 0.1.

With LISWFWWENLKLCCSIFCFI as the substance, how does the amyloid nucleation score read?
Its amyloid nucleation score is 4.4 ± 0.051.

With LITINLSV as the substance, how does the amyloid nucleation score read?
The amyloid nucleation score was 8.427 ± 0.049.

Which amyloid nucleation score does the source give for LIVCWGMWFLQW here?
Its amyloid nucleation score is -1.74 ± 1.1.

With LKDVGPYQRVRRGTVRYA as the substance, how does the amyloid nucleation score read?
The amyloid nucleation score was 0.756 ± 0.4.

For LKLFNGVRPKNGM, which amyloid nucleation score is on record?
Its amyloid nucleation score is -1.6 ± 0.75.

For LKLYPGIFIICVRTMDFVFW, which amyloid nucleation score is on record?
Its amyloid nucleation score is “inactive”.

Which amyloid nucleation score does the source give for LKNVCFCIWRISWNKISQKI here?
The amyloid nucleation score was “inactive”.

With LKPCLRFFNIIT as the substance, how does the amyloid nucleation score read?
The amyloid nucleation score was 3.44 ± 0.1.

Which amyloid nucleation score does the source give for LKQDKGITGEVVGVRILGS here?
Its amyloid nucleation score is 0.22 ± 0.32.

For LKTLIKDPMLYGQALSRVFC, which amyloid nucleation score is on record?
The amyloid nucleation score was -0.737 ± 1.1.

Which amyloid nucleation score does the source give for LKWQSYG here?
The amyloid nucleation score was 0.952 ± 0.28.

Which amyloid nucleation score does the source give for LLCFHTHLRKAMGVTINSIS here?
The amyloid nucleation score was -1.19 ± 0.49.

For LLCQITRVAIPCHVCGDDVA, which amyloid nucleation score is on record?
Its amyloid nucleation score is 3.81 ± 0.13.

Which amyloid nucleation score does the source give for LLEYCCYFYRN here?
The amyloid nucleation score was 3.57 ± 0.12.

For LLFKMAYRPLWHDNNMMTCM, which amyloid nucleation score is on record?
The amyloid nucleation score was 0.112 ± 0.79.

Which amyloid nucleation score does the source give for LLFPM here?
Its amyloid nucleation score is 0.647 ± 0.8.

For LLGLSGKYWIRGSKNSIFVW, which amyloid nucleation score is on record?
Its amyloid nucleation score is 0.157 ± 0.39.

For LLGQLKFLFLDVFLWLYVCS, which amyloid nucleation score is on record?
The amyloid nucleation score was 1.56 ± 0.22.

Which amyloid nucleation score does the source give for LLHGSLWAQSMSLCWLNVTG here?
The amyloid nucleation score was 4.24 ± 0.088.

For LLHNIDVRTSRME, which amyloid nucleation score is on record?
Its amyloid nucleation score is -0.846 ± 0.44.

With LLIKSSCFCSLDVFFS as the substance, how does the amyloid nucleation score read?
Its amyloid nucleation score is 3.69 ± 0.089.

For LLKKRANGYHYSKNLKCPAR, which amyloid nucleation score is on record?
The amyloid nucleation score was -1.29 ± 1.1.

Which amyloid nucleation score does the source give for LLKLNGILVCLDRGVMPHDS here?
The amyloid nucleation score was 2.57 ± 0.092.

Which amyloid nucleation score does the source give for LLLGINSCQEQPKGSFEERH here?
The amyloid nucleation score was -0.91 ± 1.1.

For LLLIADYMSLVCCRAGVRDV, which amyloid nucleation score is on record?
The amyloid nucleation score was 0.215 ± 0.42.

Which amyloid nucleation score does the source give for LLLITVVIRCRSWVWGWLIS here?
The amyloid nucleation score was -0.358 ± 0.74.

Which amyloid nucleation score does the source give for LLLPSAGKGSL here?
The amyloid nucleation score was 0.219 ± 1.

For LLMMRGSRVSNS, which amyloid nucleation score is on record?
Its amyloid nucleation score is -0.763 ± 0.39.

Which amyloid nucleation score does the source give for LLMSCPLSLCSEGVTSLVEG here?
The amyloid nucleation score was 1.29 ± 0.3.

Which amyloid nucleation score does the source give for LLNDFRQLNTRYDSRWGQWQ here?
Its amyloid nucleation score is 3.08 ± 0.058.

For LLNILISRAYLWSGFFERFL, which amyloid nucleation score is on record?
The amyloid nucleation score was “inactive”.

With LLNRSRSL as the substance, how does the amyloid nucleation score read?
The amyloid nucleation score was -0.723 ± 0.45.

With LLPCLPLPFMSPITARATHI as the substance, how does the amyloid nucleation score read?
The amyloid nucleation score was 3.24 ± 0.058.

With LLPSGIIH as the substance, how does the amyloid nucleation score read?
Its amyloid nucleation score is -0.815 ± 0.5.

Which amyloid nucleation score does the source give for LLRDSVY here?
The amyloid nucleation score was -0.817 ± 1.1.

With LLRRNFNYVYIIYLILSSPV as the substance, how does the amyloid nucleation score read?
Its amyloid nucleation score is “inactive”.

With LLRSLNLVG as the substance, how does the amyloid nucleation score read?
The amyloid nucleation score was 0.288 ± 0.65.

With LLRTHTSYRL as the substance, how does the amyloid nucleation score read?
Its amyloid nucleation score is -0.836 ± 0.55.

Which amyloid nucleation score does the source give for LLRVMLHISLVMC here?
The amyloid nucleation score was -1.34 ± 0.53.

For LLSFLMRSRRFLSTVKY, which amyloid nucleation score is on record?
The amyloid nucleation score was -0.931 ± 0.78.

For LLVAALSHGPGISRSVNSHP, which amyloid nucleation score is on record?
The amyloid nucleation score was 5.91 ± 0.061.

For LLWSTILMFWF, which amyloid nucleation score is on record?
The amyloid nucleation score was “inactive”.

For LLYCCLRWMDSIQGLRPAFE, which amyloid nucleation score is on record?
The amyloid nucleation score was 1.1 ± 0.61.

Which amyloid nucleation score does the source give for LMDRLFMKCDGLAG here?
Its amyloid nucleation score is 0.216 ± 0.53.

Which amyloid nucleation score does the source give for LMKLNSTLSFDYFPLT here?
The amyloid nucleation score was -0.166 ± 0.65.

Which amyloid nucleation score does the source give for LMLNWCTLGLVHC here?
The amyloid nucleation score was 0.004 ± 0.61.

With LMMSVWF as the substance, how does the amyloid nucleation score read?
Its amyloid nucleation score is 5.48 ± 0.063.

Which amyloid nucleation score does the source give for LMRLDLGT here?
Its amyloid nucleation score is -0.518 ± 0.32.

Which amyloid nucleation score does the source give for LMSGVLGRWLKKSSKFQESL here?
Its amyloid nucleation score is -0.653 ± 1.1.

For LMSYVSSRNVSLQFIFVLPL, which amyloid nucleation score is on record?
Its amyloid nucleation score is 5.55 ± 0.069.

With LMTSPSFIYVWSYTGFRMFG as the substance, how does the amyloid nucleation score read?
Its amyloid nucleation score is 4.983 ± 0.042.

Which amyloid nucleation score does the source give for LMYKNCCWFLA here?
Its amyloid nucleation score is 8.256 ± 0.062.

For LMYVCSLNNPLFMYANLL, which amyloid nucleation score is on record?
Its amyloid nucleation score is 5.54 ± 0.084.

Which amyloid nucleation score does the source give for LNAWQKEINDALSPLSYPDS here?
The amyloid nucleation score was 0.274 ± 1.1.

Which amyloid nucleation score does the source give for LNFKWANCVFVDSNCQQ here?
Its amyloid nucleation score is 3.13 ± 0.17.

With LNHCG as the substance, how does the amyloid nucleation score read?
Its amyloid nucleation score is 0.738 ± 0.55.

With LNHIYYLAIQTTACILTMGE as the substance, how does the amyloid nucleation score read?
Its amyloid nucleation score is -1.07 ± 0.63.

For LNKMECPCLFCVCVAFVIEW, which amyloid nucleation score is on record?
The amyloid nucleation score was 5.38 ± 0.067.

Which amyloid nucleation score does the source give for LNLGILAFSKVKIGVFQFYE here?
The amyloid nucleation score was 6.834 ± 0.037.

Which amyloid nucleation score does the source give for LNLSYIKAVTSRFAADYVL here?
Its amyloid nucleation score is 0.523 ± 0.18.

With LNNRISNVAAGSSLRIYLMD as the substance, how does the amyloid nucleation score read?
The amyloid nucleation score was 2.79 ± 0.062.

Which amyloid nucleation score does the source give for LNNSIYHLGKY here?
Its amyloid nucleation score is “inactive”.

For LNRYYSLPRLSVPSSVRSCG, which amyloid nucleation score is on record?
Its amyloid nucleation score is -1.18 ± 0.44.

Which amyloid nucleation score does the source give for LNSGCAVVLCADSRHSNEPD here?
Its amyloid nucleation score is -0.062 ± 0.65.

Which amyloid nucleation score does the source give for LNSPLIPVRLMGVVRFQLLD here?
Its amyloid nucleation score is -0.459 ± 0.39.

For LNSTGAQQFRTVEVYTSMQW, which amyloid nucleation score is on record?
Its amyloid nucleation score is 2.81 ± 0.11.
